Measurements taken from patent US20230414703A1 (published 2023).

B1: mouse PD-1 receptor (receptor, UniProt Q02242 25-167, looked up)
chain: LEVPNGPWRSLTFYPAWLTVSEGANATFTCSLSNWSEDLMLNWNRLSPSNQTEKQAAFCNGLSQPVQDARFQIIQLPNRHDFHMNILDTRRNDSGIYLCGAISLHPKAKIEESPGAELVVTERILETSTRYPSPSPKPEGRFQ

Key:
[1] = molecular target: T1, soluble recombinant human PD-1 receptor (human, UniProt Q15116 25-167, limits assumed); assay: BIACORE T-200 SPR, PD-1 immobilised on CM5, steady state
T1 construct: also called human PD-1 receptors
T1 sequence (Q15116 25-167 limits assumed): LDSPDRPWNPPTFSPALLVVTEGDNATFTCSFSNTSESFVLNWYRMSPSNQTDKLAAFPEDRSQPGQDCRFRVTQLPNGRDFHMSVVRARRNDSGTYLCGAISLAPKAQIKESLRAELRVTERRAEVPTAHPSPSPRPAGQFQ
Procedure: (§1) 12,000 response units (RU) of human and 6000 RU of mouse PD-1 receptors were directly immobilized on flow cell 2 and flow cell 4 of the CM5 chip by amine coupling method (EDC/NHS). The un-occupied sites were blocked with 1 M ethanol amine. […] Flow cell 1 was kept blank and used for reference subtraction. Binding of analyte to the ligand was monitored in real time.
(§2) Due to fast on rate and off rate, KD was determined by steady state equilibrium kinetics.
(§3) Chi square (χ2) analysis was carried out between the actual sensorgram and a sensorgram generated from the BIANALYSIS® software (black line) to determine the accuracy of the analysis. A χ2 value within 1-2 is considered significant (accurate) and below 1 is highly significant (highly accurate).

mouse PD-1 receptor = molecular target: B1; assay: as above
Procedure: as §1, §2, §3

[2] = molecular target: human PD-1 on Jurkat cells (human, UniProt Q15116 25-288); assay: cell-based or functional assay
Sequence of human PD-1 on Jurkat cells (Q15116 25-288): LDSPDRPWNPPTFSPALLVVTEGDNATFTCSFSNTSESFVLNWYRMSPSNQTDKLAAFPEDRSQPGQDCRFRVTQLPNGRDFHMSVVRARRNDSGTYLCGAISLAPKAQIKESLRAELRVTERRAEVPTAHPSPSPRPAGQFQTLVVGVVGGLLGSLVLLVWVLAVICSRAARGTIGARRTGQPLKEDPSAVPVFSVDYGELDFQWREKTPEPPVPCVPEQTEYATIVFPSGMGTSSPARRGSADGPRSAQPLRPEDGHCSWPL

[3] = molecular target: T1, soluble recombinant human PD-1 receptor; assay: clonal phage ELISA, peptide on phage, PD-1 coated well
From the text: The TriCo-20™ (TRICO-20™) and TriCo-16™ (TRICO-16™) Phage Display Peptide Libraries (Creative Biolabs, 45-1 Ramsey Road, Shirley, NY 11967) were screened to identify binders of soluble recombinant human PD-1 receptor.

Mouse PD-L1 = Mouse PD-L1 (mouse, UniProt Q9EP73 19-239, limits assumed); assay: BIACORE T-200 SPR, PD-1 immobilised on CM5, steady state
Sequence of Mouse PD-L1 (Q9EP73 19-239 limits assumed): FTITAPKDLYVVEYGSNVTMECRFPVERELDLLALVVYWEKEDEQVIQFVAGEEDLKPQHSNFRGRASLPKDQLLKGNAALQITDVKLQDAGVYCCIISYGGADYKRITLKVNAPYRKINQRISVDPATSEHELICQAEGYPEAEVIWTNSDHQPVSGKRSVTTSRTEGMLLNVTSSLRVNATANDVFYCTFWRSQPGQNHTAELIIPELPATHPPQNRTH

Row | Binder | Ka [1] | Kd [1] | Ka (mouse PD-1 receptor) | Kd (mouse PD-1 receptor) | peak-fold inhibition (luciferase reporter expression) [2] | Clonal Phase ELISA coated signal [3] | Ka (Mouse PD-L1) | Kd (Mouse PD-L1)
1 | QTRTVPMPKIHHPPWQNVVP (Found by phage display) [peptide QP20] | 93600 M⁻¹ | 10.7 µM | 18000 M⁻¹ | 55.4 µM | ~1.5 fold | 0.851 |  | 
2 | B1 |  |  |  |  |  |  | 2.75e+06 M⁻¹ | 0.364 µM
3 | SSYHHFKMPELHFGKNTFHQ (Found by phage display) [peptide SQ20] | 194000 M⁻¹ | 5.16 µM | 21400 M⁻¹ | 46.8 µM | ~1.5 fold | 0.284 |  | 
4 | HHHQVYQVRSHWTGMHSGHD (Found by phage display) [peptide HD20] | 318000 M⁻¹ | 3.41 µM | 4250 M⁻¹ | 235 µM | ~1.5 fold | 0.281 |  | 
5 | WNLPASFHNHHIRPHEHEWIQ (also called WQ-21) [peptide WQ20] | 3280 M⁻¹ | 305 µM | 1310 M⁻¹ | 761 µM | ~1.5 fold | 0.275 |  | 
